Test results as given in paper PMC2615623 (Nucleic Acids Research, 2008).

How the values were obtained:
[1] = target: T1, His-tagged human RNASEH2B (human, UniProt Q5TBB1 1-312); experiment: SEC
T1 sequence (looked up): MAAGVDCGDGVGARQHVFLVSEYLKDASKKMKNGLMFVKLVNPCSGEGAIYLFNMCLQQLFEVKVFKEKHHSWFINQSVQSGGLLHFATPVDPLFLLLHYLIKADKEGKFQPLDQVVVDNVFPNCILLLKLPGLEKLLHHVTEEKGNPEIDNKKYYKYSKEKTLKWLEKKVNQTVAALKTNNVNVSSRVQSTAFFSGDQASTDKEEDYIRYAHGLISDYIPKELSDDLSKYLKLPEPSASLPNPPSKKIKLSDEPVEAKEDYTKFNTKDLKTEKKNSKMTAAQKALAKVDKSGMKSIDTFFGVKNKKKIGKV

[2] = target: T2, His-tagged human RNASEH2C (human, UniProt Q8TDP1 1-164); experiment: SEC
T2 sequence (looked up): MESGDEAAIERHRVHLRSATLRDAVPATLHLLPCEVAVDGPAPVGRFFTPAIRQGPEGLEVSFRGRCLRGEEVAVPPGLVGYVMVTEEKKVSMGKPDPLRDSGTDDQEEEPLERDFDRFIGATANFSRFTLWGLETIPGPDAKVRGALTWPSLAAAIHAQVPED

stoichiometry N [1]: 1 A:B:C
stoichiometry N [2]: 1 A:B:C
B1: His-tagged human RNASEH2A (natural protein, UniProt O75792 1-299, looked up)
chain: MDLSELERDNTGRCRLSSPVPAVCRKEPCVLGVDEAGRGPVLGPMVYAICYCPLPRLADLEALKVADSKTLLESERERLFAKMEDTDFVGWALDVLSPNLISTSMLGRVKYNLNSLSHDTATGLIQYALDQGVNVTQVFVDTVGMPETYQARLQQSFPGIEVTVKAKADALYPVVSAASICAKVARDQAVKKWQFVEKLQDLDTDYGSGYPNDPKTKAWLKEHVEPVFGFPQFVRFSWRTAQTILEKEAEDVIWEDSASENQEGLRKITSYFLNEGSQARPRSSHRYFLERGLESATSL
